# Measured values reported in patent publication US8729232.
# Test system: T1, biotinylated 13-mer peptide LCTPSKGSLFTGR (native Mtb motif with arginine to lysine substitution at position 6)
# T1 sequence: LCTPSKGSLFTGR
substance,measurement,value
"Mycobacterium tuberculosis formylglycine generating enzyme (Mtb FGE, Rv0712), recombinant",FGly conversion detected by MALDI-TOF,A peak indicating the FGly-modified species appeared
